Here are results for three molecules from PMC9789324 (Food Chemistry: Molecular Sciences, 2022).

Assay in all cases: crystal structure
In series [1] the target is Len c 1, lentil vicilin (7S globulin) core region (Lens culinaris Medicus (lentil)).
The target of series [2] is Pis s 1, pea vicilin (7S globulin) core region (Pisum sativum L. (pea)).
The series “crystal structure” deals with the molecule itself.

Usually stoichiometry N stands for a count of units in the complex or per binding partner. “Len c 1, lentil vicilin (7S globulin) core region (domain or fragment)” came in with a stoichiometry N in series [1] of 3.

Consider “Pis s 1, pea vicilin (7S globulin) core region (domain or fragment)”, for which the stoichiometry N in series [2] came out at 3.

B1: Pis s 2, pea convicilin (7S globulin) core region (domain or fragment, Pisum sativum L. (pea))
chain: SQERRNPFLFKSNKFLTLFENENGHIRLLQRFDKRSDLFENLQNYRLVEYRAKPHTIFLPQHIDADLILVVLSGKAILTVLSPNDRNSYNLERGDTIKLPAGTTSYLVNQDDEEDLRLVDLVIPVNGPGKFEAFDLAKNKNQYLRGFSKNILEASYNTRYETIEKVLLEEQEKDRKRRQQGEETDAIVKVSREQIEELKKLAKSSSKKSLPSEFEPINLRSHKPEYSNKFGKLFEITPEKKYPQLQDLDLFVSCVEINEGALMLPHYNSRAIVVLLVNEGKGNLELLGLKNEQQEREDRKERNNEVQRYEARLSPGDVVIIPAGHPVAITASSNLNLLGFGINAENNERNFLSGSDDNVISQIENPVKELTFPGSVQEINRLIKNQKQSHFANA
In the case of B1, the “stoichiometry N” value in the series “crystal structure” is 3.
